# Assay results reported in the DeepSol protein solubility set.
# Test: soluble on expression in E. coli; label from the status in PepcDB or PDB records
row,Sequence,soluble on expression in E. coli
1,MGSDKIHHHHHHMSFPTIPDITPTISINRSDVINLLLASIAFEELGLAHIINAEAEKIQYILGTLSEQVPTEPPTQDDLIEINKSVNQTLRTVIKNQMLLQFKLEDLIVENPLPSITIKKYVSGDGGVTWYDADSPPGPTIDPEQVPMFRFVITNTGNVILTGVTVTDSVLGLISTGGILPPGAFFEEYRSGEYLGGDQSNTATVIGYYLDQQVEDSDVAYYTEPT,not soluble
2,MGSDKIHHHHHHMSFRMIEPETIDDAAFVSSTVPETDAPVWDASTDYPFSDPDNPEEVIVEVGQHAIYRAVAPSGPSHGGAVDPATDTGNTKWVKIRSTNRWRVFDEYIGDPSVQANSAQWVITAPKVIDSVSLFGLYALSVTVLVRDSGGAEVYNQTYSLQDESGVVDLYTYLTSPIILSDRLVITDIPPYAGAKVTVTAEASGEDVEVGQIVIGRKEEIGVTIDEIPLSIQDFSRKERDPDFGRVSLLEKDFADEMPVAFVFPTSRASYLKSRLASRRAKLTVYSSDGPYKANEFSVYGFYQSFQVVPRIGSESEGILELESIT,not soluble
3,MGSDKIHHHHHHMSGNESVVNYDHFIDKRRVRKAFERAAPLYDQAAVLQREVCDRMLSRLEYIKYMPDVVLDAGSGTGYGTCKLLERYPDASMLAIDIATGMHHQARQRMNSMIPRWRQLFGVGRNQRTSRVRYVAGDIEQLPLEDSCAGLVWSNLALQWCNDLKKTFDEMRRILKNGGLFMFSTFGPDTLKELRQAFRHADDYSHVNRFADMHDIGDMLVHSGFATPVMDMEYITLTYDEVISVMRDLKAIGAHNATGARHRGLTGKNAWQKAIGHYETLRTGGKLPATFEVVYGHAWKPAPRTSILTPETRRHIGLE,not soluble
4,MGSDKIHHHHHHMSGPQKANDLLGQIPKTKGLPPVHLWNPDFCGDIDMRIARDGTWYYLGTPIGRKPMVKLFSTIIRRDGDDYFLITPVEKVGIKVDDAPFVAIAVEMEGEGEAQVLRFTTNVDETTEAGAEHLIRVEIDPVTQEPAPYVHVRTNLEALIHRNVFYQLVELAVSREIDGQRWLGVWSGGEFFRIGLEP,not soluble
5,MGSDKIHHHHHHMSGTHDTKQAIASALIELCEQKDFRKISVQDITKKVGLNRQTFYYHFTDKYDLLRWIYRHDALIYLETDICLENWEEQALKLLKAIKEKSHFYYTTVTSDSEVLLNVFSASTNRLFISLFEQVDVENHLTDKDKQFYANFFSYGCSGVLTKWILEEYPQTPLEMATQLFRLAKDTEFMAYHLYEQEANE,not soluble
6,MGSDKIHHHHHHMSIEQLADLTQPQRDRLAFVELRVRFIGEIRRQDLVSRFGIQSAAASRDLALYKELVPGNIDYDSKGKSYVLGPDFRPLFEFPPERVLSWLTQGFGDGEPMQLKAWVASESPSRLARPDLTVLASVTRAIHQGCPLAVEYHSISSGKANRQIVPFALIDDGQRWLVRAFDRESQQFRDFVITRIRNPQVLKGENPAPHEASDQDIQWTRILELDLVPHPNRPHPEISEMDYSMERGVWKMKLRAAMAGYILCKLRVDCSPTHKLNGSEHRLWLRNHLALYGVRSAVLAPGYESPEPVGQEQDGD,not soluble
7,MGSDKIHHHHHHMSIKSDKWIRRMAAQHGMIEPFEPNPIRQVNGEKIVSYGTSSYGYDIRCADEFKVFTNINSTIVDPKNFDPNSFVEFKNDFCIIPPNSFALARTVEYFRIPRSVLTVCLGKSTYARCGIIVNVTPFEPEWEGYVTLEFSNTTPLPAKIYAGEGCAQVLFFESDEECEISYKDRGGKYQGQVGVTLPKI,not soluble
8,MGSDKIHHHHHHMSIRGKAFIVGAYEHPGRNLPDHSVQQIHAECAMGALSDAGLSIKDVDGYFSNGQLGFGGISMAEYLGLRLSYIDSTFTGGSSYMAHVGHAAAAIAAGKCKVALITQGAKVRGVIRGAKHTADTPEFPFETVYGETNAAIYALAARRHMHEYGTTAEQLAAVKVAAAAYAQHNPNALLRKLVSIDDVMNSPIIADPLHRLDCCVVTDGGGALVLVAPEIARSLKRQSVKLLGHAEAIRHGGDGPSDFASTAAALSGPRAFTEAGVSPRDVRYASIYDSFTITVIMTLEDLGFCGKGEGGAFVASGALGLDGLLPINTDGGGLCNNHPGYQGGMVRTIEAVRQLRGEANPNTQVKNCTIALAHGTGGGMSRHASVTLVLGQEDA,not soluble
9,MGSDKIHHHHHHMSKEIDIEYYHQLALQKQKEHRKVLANLKKKPPKNLDKIAQQIHQEVFEEIDCTACANCCKTLGPDFKEADITRIAKYFKMKLPAFEAEFLQVDADGDKVFKSMPCPFLGGDNLCSIYDVRPKACREFPHTDRKKIHQINHLTIKNTLTCPAAYLFVEKLKDKL,not soluble
10,MGSDKIHHHHHHMSKFKVKRLTAHILMLKVINDMLKYSFHLTLTQVKLLNLLVKYDNSDSNSASIDRLLKMKEIQSKMALLQMLSYLNNHQWLLKGRDQRDQRKLTISINKMHIDKIEYMNNELSDYIERYFGQYTFDFSCDYVSYLLSSQELFRNLKCYLNMCQLTLEELYVLGILNLHKGQLTVKELQGEFHHPIFAVSPILKCLILKGLVKKERCELDERRVIVTIKREKFSKVTMLIQACYNYLEKGIQVKLNNK,not soluble
11,MGSDKIHHHHHHMSKLNMKEWINEIIQKKEVVAMPIMTHPGIEMIGKTVRDAVTDGQVHYNAIKALSEKYPTAAATVIMDLTVEAEAFGAEIVFPENEVPSVVGRLLNDEEAIDKLEIPALNKGRIPQYLKANMLAAKTITDRPVFAGCIGPYSLAGRLYDMSEIMMLIYINPEAANSLLKKCSDFILRYCMALKATGVNGVVMAEPAAGLLSDEDCTQYSSVFIKEIVEKVQDDHFTVILHNCGNTGHCTKAMVATGAAAYHFGNKIDMVEALKEVPADALAMGNLDPVSLFKAATPEVMKKATLDLLEATRSYPNFVLSSGCDTPPHTPSENIDAFFAALNEFNNA,not soluble
12,MGSDKIHHHHHHMSKTIQAITNQIWSMANELRGNMDASEYKNYILAFMFYRYLSEHQERFLVEDEIISPAPGETVQDAYVREAVGNDLVEHLENTASHLGYAIEPEDTWARLVAKIDNSEIVASDYQTIFDHFNANVELNRDAMEDFRGVFNDINLGDSRLGNSTVARAKSLNSIVKLIDSIEYKNDEGKDILGEIYEYLIGQFAASAGKKGGEFYTPHQVSKILAKIVTLGLEKSDTSFSVYDPTMGSGSLLLTVRNELPQGQHIKFYGQEMNTTTYNLARMNLMMHQVSYSNMILNNADTLESDWPDGVDELGIDQPRSFDAVVANPPYSAKWDNRESKLKDPRFMEYGKLAPASKADFAFILHSLYHLNNTGTMAIVLPHGVLFRGAAEGHIRKLIIEKNYLDAVIGLPANLFYGTGIPTTILVFKKNRQTKDVFFIDASKEFEKGKNQNHLSDDMVEKIVETYHNRQSVDKYAHLASIEEIVENDYNLNIPRYVDTFEEEEEIDLGQVTQQLEQDRLEIRALEDKIRQQLKTLGVDF,not soluble
13,MGSDKIHHHHHHMSKVFIATANAGKAHDADIFSVSACNSFTVSCSGDGYLKVWDNKLLDNENPKDKSYSHFVHKSGLHHVDVLQAIERDAFELCLVATTSFSGDLLFYRITREDETKKVIFEKLDLLDSDMKKHSFWALKWGASNDRLLSHRLVATDVKGTTYIWKFHPFADESNSLTLNWSPTLELQGTVESPMTPSQFATSVDISERGLIATGFNNGTVQISELSTLRPLYNFESQHSMINNSNSIRSVKFSPQGSLLAIAHDSNSFGCITLYETEFGERIGSLSVPTHSSQASLGEFAHSSWVMSLSFNDSGETLCSAGWDGKLRFWDVKTKERITTLNMHCDDIEIEEDILAVDEHGDSLAEPGVFDVKFLKKGWRSGMGADLNESLCCVCLDRSIRWFREAGGK,not soluble
14,MGSDKIHHHHHHMSKVFIVGAAGNVGRRLTQQLAQRGHTLMAMHRHPDQADAIQAAGGVSVLGDITQISATDLATLMSGNDAIVFSAGAGGKGIQLTNDVDGKGLELAVEAAQLAGIQRFILVSVFPDALRGGSVSASFENYMLVKKHADVHLVSTDLDWVILRPGTLLDEVGTGKVNAAVAIPYGSVSRDDVAATLVELIEQPKVNRIIIELTQGEIPINDAISRLVAQ,not soluble
